To fix the notation:
T1: recombinant hIFN-γ receptor (the extracellular part of the IFNGR1) (human, UniProt P15260 18-245)
T1 construct: extracellular domain; In solution for ITC; also called soluble (extracellular) part of the hIFN-γ receptor IFNGR1; interferon-gamma receptor
T1 sequence (looked up): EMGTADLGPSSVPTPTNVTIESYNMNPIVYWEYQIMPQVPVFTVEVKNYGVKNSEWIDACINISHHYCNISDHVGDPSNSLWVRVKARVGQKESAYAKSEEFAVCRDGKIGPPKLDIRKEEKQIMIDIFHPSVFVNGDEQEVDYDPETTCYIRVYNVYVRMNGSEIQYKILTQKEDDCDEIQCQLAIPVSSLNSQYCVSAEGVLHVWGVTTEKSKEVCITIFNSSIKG

T2: hIFN-γ receptor on human amniotic WISH cells (human, UniProt P15260 18-489)
T2 sequence (looked up): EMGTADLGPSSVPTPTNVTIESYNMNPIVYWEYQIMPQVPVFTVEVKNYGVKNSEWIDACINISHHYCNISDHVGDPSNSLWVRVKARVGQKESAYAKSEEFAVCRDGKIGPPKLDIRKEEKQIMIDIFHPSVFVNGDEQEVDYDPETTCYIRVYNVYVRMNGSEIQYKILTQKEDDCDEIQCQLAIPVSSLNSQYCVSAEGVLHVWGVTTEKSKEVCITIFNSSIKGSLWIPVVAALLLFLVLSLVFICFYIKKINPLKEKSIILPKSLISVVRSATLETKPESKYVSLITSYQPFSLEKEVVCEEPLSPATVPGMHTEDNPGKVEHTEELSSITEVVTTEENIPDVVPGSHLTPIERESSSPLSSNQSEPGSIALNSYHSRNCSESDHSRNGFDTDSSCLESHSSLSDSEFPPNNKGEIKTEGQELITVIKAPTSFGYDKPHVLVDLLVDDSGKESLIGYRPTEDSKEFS

B1: K88Q (138 aa) (ligand, human, UniProt P01579 24-161, looked up)
chain: QDPYVKEAENLKKYFNAGHSDVADNGTLFLGILKNWKEESDRKIMQSQIVSFYFKLFKNFKDDQSIQKSVETIKEDMNVKFFNSNKKQRDDFEKLTNYSVTDLNVQRKAIHELIQVMAELSPAAKTGKRKRSQMLFRG
notes: range 1-138; also called Control 3: K88Q(138 aa); Control 2: K88Q
B2: anti-gamma mutant protein K88Q_T27Y (138 aa) (ligand)
chain: B1 chain with T27Y
notes: Expressed in E. coli as a HIS-SUMO fusion and the tag was cleaved off; Positions count on the mature 143 aa hIFN-γ
B3: reference hIFN-γ (143 aa) (ligand, human, UniProt P01579 24-161, looked up)
chain: B1 chain with Q88K
notes: mature; also called standard hIFN-γ; wild type hIFN-γ
B4: anti-gamma mutant protein K88Q_D41N (138 aa) (ligand)
chain: B1 chain with D41N

Data on four molecules can be found in patent EP3381935A1 (Tigo GmbH, dated 2018).

Positions count from the first letter of the chain named. Numbers in names are those of the source.

One experiment deals with T1, recombinant hIFN-γ receptor (the …). Description: ITC, IFNGR1 in the cell titrated with ligand, 20°C. In general terms: In ITC the heat of successive injections is recorded.
As a reminder, the Kd is a measure of binding affinity in units of concentration. In the case of B1, the Kd stood at 18.9 nM.
Regarding B2, the Kd turned out to be 28.2 nM.
With B3, the dissociation constant (Kd) came out at 136 nM.

The next experiment concerns the target T2, hIFN-γ receptor on human amniotic WISH …. The experiment in a line: cell-based or functional assay.
For B1, the Competitive ability % is 25%.
Take B2: the Competitive ability % came out at 35%.
Still for that read-out and setting: as for B4, the figure is 30%.
